Measurements: US20170368189

How the values were obtained:
[1] = target: T1, Permanent N-terminal CNP-38 PEG 5 kDa conjugate 15e (not fully specified)
T1 chain: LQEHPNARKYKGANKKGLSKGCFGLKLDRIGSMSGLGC

[2] = target: T2, Permanent N-terminal CNP-34 PEG 5 kDa conjugate 14e (not fully specified)
T2 chain: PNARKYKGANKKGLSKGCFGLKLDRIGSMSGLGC

[3] = target: T3, Permanent Lys26 CNP-38 PEG4x10 kDa conjugate 12g (not fully specified)
T3 chain: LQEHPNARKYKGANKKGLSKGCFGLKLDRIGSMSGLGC

Measured: half life norm. [h] (in vitro NEP digest)

B1: recombinant human Neutral Endopeptidase (NEP) (protein)
chain: YDDGICKSSDCIKSAARLIQNMDATTEPCTDFFKYACGGWLKRNVIPETSSRYGNFDILRDELEVVLKDVLQEPKTEDIVAVQKAKALYRSCINESAIDSRGGEPLLKLLPDIYGWPVATENWEQKYGASWTAEKAIAQLNSKYGKKVLINLFVGTDDKNSVNHVIHIDQPRLGLPSRDYYECTGIYKEACTAYVDFMISVARLIRQEERLPIDENQLALEMNKVMELEKEIANATAKPEDRNDPMLLYNKMTLAQIQNNFSLEINGKPFSWLNFTNEIMSTVNISITNEEDVVVYAPEYLTKLKPILTKYSARDLQNLMSWRFIMDLVSSLSRTYKESRNAFRKALYGTTSETATWRRCANYVNGNMENAVGRLYVEAAFAGESKHVVEDLIAQIREVFIQTLDDLTWMDAETKKRAEEKALAIKERIGYPDDIVSNDNKLNNEYLELNYKEDEYFENIIQNLKFSQSKQLKKLREKVDKDEWISGAAVVNAFYSSGRNQIVFPAGILQPPFFSAQQSNSLNYGGIGMVIGHEITHGFDDNGRNFNKDGDLVDWWTQQSASNFKEQSQCMVYQYGNFSWDLAGGQHLNGINTLGENIADNGGLGQAYRAYQNYIKKNGEEKLLPGLDLNHKQLFFLNFAQVWCGTYRPEYAVNSIKTDVHSPGNFRIIGTLQNSAEFSEAFHCRKNSYMNPEKKCRVW
Almost no proteolysis after 4 days.: all assays above
